US20250340654A1

Target: Canine IL-31RA ECD-10His (canine)
Assay: ELISA, IL-31RA coated at 1 ug/mL, biotinylated IL-31 titrated, HRP-streptavidin

Chain of Canine IL-31RA ECD-10His (canine) (chain, as listed by the source limits assumed): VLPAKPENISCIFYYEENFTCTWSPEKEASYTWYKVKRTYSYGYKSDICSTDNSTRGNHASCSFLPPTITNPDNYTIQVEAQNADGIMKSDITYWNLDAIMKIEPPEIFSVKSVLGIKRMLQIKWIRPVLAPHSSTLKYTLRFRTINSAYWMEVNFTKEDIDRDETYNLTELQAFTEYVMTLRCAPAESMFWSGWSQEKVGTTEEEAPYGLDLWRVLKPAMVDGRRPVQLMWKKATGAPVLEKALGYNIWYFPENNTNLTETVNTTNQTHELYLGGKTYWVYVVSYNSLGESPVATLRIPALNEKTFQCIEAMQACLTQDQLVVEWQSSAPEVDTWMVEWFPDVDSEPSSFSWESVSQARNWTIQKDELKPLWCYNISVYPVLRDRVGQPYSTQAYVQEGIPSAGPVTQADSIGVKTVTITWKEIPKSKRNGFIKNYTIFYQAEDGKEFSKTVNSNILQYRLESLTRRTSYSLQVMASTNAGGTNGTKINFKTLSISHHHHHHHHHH

EC50: 0.55 ng/mL
Substance: biotinylated canine IL-31 (ligand)
